In publication PMC7179087 (Biochemistry, 2019):

Columns and labels:
Conditions in all cases: adenylation; co-substrate ATP
PvfC-AWH6 = assay: ATP-[…]PPi exchange, steady-state kinetics; assay type: biochemical, Pseudomonas fluorescens
PvfCPf0-1 = test system: PvfCPf0-1
CC(C)C[C@H](N)C(=O)O [1] = assay: purified protein
CC(C)[C@H](N)C(=O)O [2] = assay: purified protein
CC[C@H](C)[C@H](N)C(=O)O [3] = assay: purified protein
CC(C)C[C@H](N)C(=O)O [4] = assay: purified protein; assay type: biochemical, Pseudomonas entomophila
CC(C)[C@H](N)C(=O)O [5] = assay: purified protein; assay type: biochemical, Pseudomonas entomophila
CC[C@H](C)[C@H](N)C(=O)O [6] = assay: purified protein; assay type: biochemical, Pseudomonas entomophila

CC(C)C[C@H](N)C(=O)O [L-Leu]
Km (PvfC-AWH6): 2100 ± 600 µM

CC(C)[C@H](N)C(=O)O [L-Val]
Km (PvfCPf0-1): 2400 ± 800 µM

PvfCL48 (Pseudomonas entomophila L48)
Km (CC(C)C[C@H](N)C(=O)O [1]): 7000 ± 3000 µM | kcat (CC(C)C[C@H](N)C(=O)O [1]): 0.65 ± 0.1 s⁻¹ | kcat/Km (CC(C)C[C@H](N)C(=O)O [1]): 93 M⁻¹ s⁻¹ | Km (CC(C)[C@H](N)C(=O)O [2]): 1200 ± 800 µM | kcat (CC(C)[C@H](N)C(=O)O [2]): 13.1 ± 0.7 s⁻¹ | kcat/Km (CC(C)[C@H](N)C(=O)O [2]): 11000 M⁻¹ s⁻¹ | Km (CC[C@H](C)[C@H](N)C(=O)O [3]): 8000 ± 2000 µM | kcat (CC[C@H](C)[C@H](N)C(=O)O [3]): 1.3 ± 0.2 s⁻¹ | kcat/Km (CC[C@H](C)[C@H](N)C(=O)O [3]): 160 M⁻¹ s⁻¹

PvfCL48 (Pseudomonas entomophila L48; A381S/I467L/L384I/V444M)
Km (CC(C)C[C@H](N)C(=O)O [4]): 15000 ± 9000 µM | kcat (CC(C)C[C@H](N)C(=O)O [4]): 2.2 ± 0.8 s⁻¹ | kcat/Km (CC(C)C[C@H](N)C(=O)O [4]): 150 M⁻¹ s⁻¹ | Km (CC(C)[C@H](N)C(=O)O [5]): 1200 ± 700 µM | kcat (CC(C)[C@H](N)C(=O)O [5]): 0.03 ± 0.01 s⁻¹ | kcat/Km (CC(C)[C@H](N)C(=O)O [5]): 25 M⁻¹ s⁻¹

PvfCL48 (Pseudomonas entomophila L48; V444I)
Km (CC(C)C[C@H](N)C(=O)O [4]): 3000 ± 1000 µM | kcat (CC(C)C[C@H](N)C(=O)O [4]): 0.71 ± 0.09 s⁻¹ | kcat/Km (CC(C)C[C@H](N)C(=O)O [4]): 240 M⁻¹ s⁻¹ | Km (CC(C)[C@H](N)C(=O)O [5]): 1500 ± 200 µM | kcat (CC(C)[C@H](N)C(=O)O [5]): 10.7 ± 0.5 s⁻¹ | kcat/Km (CC(C)[C@H](N)C(=O)O [5]): 7100 M⁻¹ s⁻¹ | Km (CC[C@H](C)[C@H](N)C(=O)O [6]): 3700 ± 700 µM | kcat (CC[C@H](C)[C@H](N)C(=O)O [6]): 1.2 ± 0.09 s⁻¹ | kcat/Km (CC[C@H](C)[C@H](N)C(=O)O [6]): 320 M⁻¹ s⁻¹
